Patent publication US8906356 (MIT, dated 2014)
Substitutions are numbered along the chain they refer to. In names and notes the source's numbering stands.

T1: IL-2 receptor α subunit (IL-2Rα, CD25) on Kit225 cells (human, UniProt P01589 22-272)
T1 construct: whole, on cells; Kit225 cells express all three IL-2 receptor subunits, with IL-2Rα in ~10 fold excess; also called p55
T1 sequence (looked up): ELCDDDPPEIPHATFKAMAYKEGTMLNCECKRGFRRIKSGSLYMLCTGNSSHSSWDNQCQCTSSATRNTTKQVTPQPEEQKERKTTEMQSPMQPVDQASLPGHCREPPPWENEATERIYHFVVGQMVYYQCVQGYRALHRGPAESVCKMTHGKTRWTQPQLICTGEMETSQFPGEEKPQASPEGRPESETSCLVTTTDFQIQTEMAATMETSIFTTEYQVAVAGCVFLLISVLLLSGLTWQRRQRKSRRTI

T2: IL-2 receptor (IL-2Rα, IL-2Rβ and IL-2Rγ) on cells (human, UniProt P01589 22-272; P14784 27-551; P31785 23-369)
T2 sequence (looked up) 1: T1 sequence (looked up)
T2 sequence (looked up) 2: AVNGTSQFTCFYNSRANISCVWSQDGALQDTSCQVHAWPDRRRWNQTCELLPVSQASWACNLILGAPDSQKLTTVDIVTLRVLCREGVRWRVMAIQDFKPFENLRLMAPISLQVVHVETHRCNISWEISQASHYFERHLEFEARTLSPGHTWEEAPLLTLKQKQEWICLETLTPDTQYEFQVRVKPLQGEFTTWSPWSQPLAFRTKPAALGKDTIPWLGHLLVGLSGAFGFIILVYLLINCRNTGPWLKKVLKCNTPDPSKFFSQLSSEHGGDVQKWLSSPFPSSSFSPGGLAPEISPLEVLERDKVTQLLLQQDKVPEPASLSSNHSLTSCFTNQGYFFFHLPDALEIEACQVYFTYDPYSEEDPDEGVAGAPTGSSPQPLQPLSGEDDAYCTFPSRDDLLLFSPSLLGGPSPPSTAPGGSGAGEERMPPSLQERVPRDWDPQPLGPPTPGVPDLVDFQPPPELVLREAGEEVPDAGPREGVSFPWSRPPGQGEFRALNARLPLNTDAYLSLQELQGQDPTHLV
T2 sequence (looked up) 3: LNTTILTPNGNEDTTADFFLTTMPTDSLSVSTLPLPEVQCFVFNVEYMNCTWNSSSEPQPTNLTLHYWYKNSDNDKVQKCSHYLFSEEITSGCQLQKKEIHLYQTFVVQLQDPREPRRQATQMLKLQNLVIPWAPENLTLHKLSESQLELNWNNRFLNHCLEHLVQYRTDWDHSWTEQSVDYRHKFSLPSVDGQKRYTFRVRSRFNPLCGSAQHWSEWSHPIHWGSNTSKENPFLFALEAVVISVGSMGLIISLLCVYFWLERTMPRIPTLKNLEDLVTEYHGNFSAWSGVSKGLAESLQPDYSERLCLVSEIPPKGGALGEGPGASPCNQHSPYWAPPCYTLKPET

B1: Q126T (2-4 IL-2 with a Q126T point mutation) (ligand)
chain: APTSSSTKKTQLQLEHLLLDLQMILNGISNHKNPRLARMLTFKFYMPEKATELKHLQCLEEELKPLEEALRLAPSKNFHLRPRDLISDVNVIVLELKGSETTFMCEYADETATIVEFLNRWITFCTSIISTLT
B2: Q126T/V91R double mutant (ligand)
chain: B1 chain with V91R
B3: 2-4 IL-2 (engineered mutant of human IL-2 with high affinity for IL-2Rα) (ligand)
chain: B1 chain with T126Q
B4: V91R (2-4 IL-2 with a V91R point mutation) (ligand)
chain: B1 chain with V91R, T126Q

What was measured:
[1] = biological target: T1, IL-2 receptor α subunit (IL-2Rα, CD25) …; experiment: cell surface titration on Kit225 cells, flow cytometry with anti-FLAG detection
Method: Determination of IL-2Rα binding affinities of IL-2 mutants. […] At low IL-2 mutant concentrations, the total volume was increased to maintain an excess number of IL-2 mutant molecules over the number of IL-2Rα. After incubation, cells were kept on ice and stained with mouse anti-FLAG monoclonal antibody M2 (Sigma Aldrich, St. Louis, Mo.), followed by an Alexa Fluor 488 conjugated goat anti-mouse antibody (Invitrogen, Carlsbad, Calif.), to detect cell-surface bound protein. The mean single-cell fluorescence was measured, and the dissociation constant (K_D) and the 95% confidence interval were determined as previously described, using the following equation: Fobs = cL_0/(K_D + L_0), where $Fobs$ is the background-corrected mean fluorescence, L_0 is the initial concentration of the protein being measured, and c is the proportionality constant.
The IL-2Rα binding affinity of the IL-2 mutants was measured in using Kit225 cells, a human T cell line that is dependent on IL-2 for growth. Kit225 constitutively expresses all three subunits of the IL-2 receptor, with IL-2Rα in ~10 fold excess. The IL-2Rα binding affinity was measured using cell surface titrations on Kit225.

[2] = biological target: T2, IL-2 receptor (IL-2Rα, IL-2Rβ and …); experiment: cell-based or functional assay
[3] = biological target: T1, IL-2 receptor α subunit (IL-2Rα, CD25) …; experiment: cell surface titration on Kit225 cells (method not restated for the double mutant)

| Kd [1] [nM] | IC50 of inhibition of STAT5 phosphorylation in Kit225 cells with 25 pM wild type IL-2 [2] [nM] | Kd [3] [nM] | Binder |
| --- | --- | --- | --- |
| 0.109 | 1.9 |  | B1 |
|  |  | 2 | B2 |
| 0.199 |  |  | B3 |
| 0.119 | 2.4 |  | B4 |
